Results as given in patent publication US20240132591A1 (PANDION OPERATIONS, published 2024).

T1: Human MAdCAM (human, UniProt Q13477 19-317, limits assumed)
T1 construct: also called huMAdCAM; human MAdCAM-1
T1 sequence (looked up): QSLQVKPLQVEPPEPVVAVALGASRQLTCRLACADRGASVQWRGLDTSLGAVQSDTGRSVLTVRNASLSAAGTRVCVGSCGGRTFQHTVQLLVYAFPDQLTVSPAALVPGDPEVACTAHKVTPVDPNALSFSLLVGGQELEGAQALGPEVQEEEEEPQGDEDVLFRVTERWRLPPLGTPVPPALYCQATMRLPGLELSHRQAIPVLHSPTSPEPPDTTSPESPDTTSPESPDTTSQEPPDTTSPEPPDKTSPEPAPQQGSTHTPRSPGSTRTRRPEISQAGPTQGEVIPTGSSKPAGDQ


How the values were obtained:
Insulin [1] = molecular target: T2, Insulin (UniProt P01308 25-54; P01308 90-110); test: ELISA on insulin-coated plate
T2 construct: Polyreactivity antigen; mature insulin has A and B chains; also called human insulin

Insulin [2] = molecular target: T2, Insulin; test: ELISA on insulin-coated plate, 100 nM
Description: Non-specific DNA and Insulin binding is predictive of poor pharmacokinetics (PK). An immunosorbent plate was coated with dsDNA at a concentration of 1 μg/mL or Insulin at 5 μg/mL in PBS pH 7.4, 75 μl/well, and incubated overnight at 4° C. Wells were washed with PBS pH 7.4 containing 0.05% Tween-20 (wash buffer) three times, and then blocked with 200 μl/well 1% BSA in PBS pH 7.4 (block buffer) for two hours at room temperature. […] The diluted material was added to the DNA/insulin coated plate at 75 μl/well for 1 hour at room temperature. After three washes with wash buffer, a donkey anti-human FcY HRP conjugated polyclonal antibody, diluted to 1:5000 in assay buffer, was added to the plate at 75 μl/well for 1 hr at room temperature. After three washes with wash buffer and three washes with wash buffer (with no tween-20), the assay was developed with TMB, and stopped with 1N HCL. OD 450 nm was measured. The experiment included appropriate controls for non-specific binding of test articles to the plate/block in the absence of DNA or insulin.

Human MAdCAM = molecular target: T1, Human MAdCAM; test: BLI Octet, AHC capture

binding result (Insulin [1]) | Insulin polyreactivity score (Insulin [2]) | Kd (Human MAdCAM) | koff (Human MAdCAM) | kon (Human MAdCAM) | binding result (Human MAdCAM) | Binder
no binding (tested: 100 nM) | 2.46 | 8360 nM | 0.543 s⁻¹ | 64800 M⁻¹ s⁻¹ | – | MIAB153 (antibody, human IgG1, kappa) heavy: EVQLLESGGGLVQPGGSLRLSCAASGFTFSDFWMHWVRQAPGKGLEWISYISGDSGYTNYADSVKGRFTISRDNSKNTLYLQMNSLRAEDTAVYYCARDRPYYYYMDVWGKGTTVTVSSASTKGPSVFPLAPSSKSTSGGTAALGCLVKDYFPEPVTVSWNSGALTSGVHTFPAVLQSSGLYSLSSVVTVPSSSLGTQTYICNVNHKPSNTKVDKKVEPKSCDKTHTCPPCPAPEAAGAPSVFLFPPKPKDTLMISRTPEVTCVVVDVSHEDPEVKFNWYVDGVEVHNAKTKPREEQYNSTYRVVSVLTVLHQDWLNGKEYKCKVSNKALPAPIEKTISKAKGQPREPQVYTLPPSREEMTKNQVSLTCLVKGFYPSDIAVEWESNGQPENNYKTTPPVLDSDGSFFLYSKLTVDKSRWQQGNVFSCSVMHEALHNHYTQKSLSLSPGGGGGSAPTSSSTKKTQLQLEHLLLDLQMILNGINNYKNPKLTRMLTFKFYMPKKATELKHLQCLEEELKPLEEALNLAPSKNFHLRPRDLISDINVIVLELKGSETTFMCEYADETATIVEFINRWITFSQSIISTLT light: not shown
no binding (tested: 100 nM) | 2.67 | – | – | – | – | MIAB158 (antibody, human IgG1, kappa) heavy: EVQLLESGGGLVQPGGSLRLSCAASGFTFSDFWMHWVRQAPGKGLEWISYISGDSGYTNYADSVKGRFTISRDNSKNTLYLQMNSLRAEDTAVYYCARDRPYYYYMDVWGKGTTVTVSSASTKGPSVFPLAPSSKSTSGGTAALGCLVKDYFPEPVTVSWNSGALTSGVHTFPAVLQSSGLYSLSSVVTVPSSSLGTQTYICNVNHKPSNTKVDKKVEPKSCDKTHTCPPCPAPEAAGAPSVFLFPPKPKDTLMISRTPEVTCVVVDVSHEDPEVKFNWYVDGVEVHNAKTKPREEQYNSTYRVVSVLTVLHQDWLNGKEYKCKVSNKALPAPIEKTISKAKGQPREPQVYTLPPSREEMTKNQVSLTCLVKGFYPSDIAVEWESNGQPENNYKTTPPVLDSDGSFFLYSKLTVDKSRWQQGNVFSCSVMHEALHNHYTQKSLSLSPGGGGGSAPTSSSTKKTQLQLEHLLLDLQMILNGINNYKNPKLTRMLTFKFYMPKKATELKHLQCLEEELKPLEEALNLAPSKNFHLRPRDLISDINVIVLELKGSETTFMCEYADETATIVEFINRWITFSQSIISTLT light: not shown
no binding (tested: 100 nM) | 3.63 | 2960 nM | 0.292 s⁻¹ | 98700 M⁻¹ s⁻¹ | – | MIAB151 (antibody, human IgG1, kappa) heavy: EVQLLESGGGLVQPGGSLRLSCAASGFTFSDFWMHWVRQAPGKGLEWISYISGDSGYTNYADSVKGRFTISRDNSKNTLYLQMNSLRAEDTAVYYCARDRPYYYYMDVWGKGTTVTVSSASTKGPSVFPLAPSSKSTSGGTAALGCLVKDYFPEPVTVSWNSGALTSGVHTFPAVLQSSGLYSLSSVVTVPSSSLGTQTYICNVNHKPSNTKVDKKVEPKSCDKTHTCPPCPAPEAAGAPSVFLFPPKPKDTLMISRTPEVTCVVVDVSHEDPEVKFNWYVDGVEVHNAKTKPREEQYNSTYRVVSVLTVLHQDWLNGKEYKCKVSNKALPAPIEKTISKAKGQPREPQVYTLPPSREEMTKNQVSLTCLVKGFYPSDIAVEWESNGQPENNYKTTPPVLDSDGSFFLYSKLTVDKSRWQQGNVFSCSVMHEALHNHYTQKSLSLSPGGGGGSAPTSSSTKKTQLQLEHLLLDLQMILNGINNYKNPKLTRMLTFKFYMPKKATELKHLQCLEEELKPLEEALNLAPSKNFHLRPRDLISDINVIVLELKGSETTFMCEYADETATIVEFINRWITFSQSIISTLT light: not shown

Continued, binder first:

Binder | binding result (Insulin [1]) | Insulin polyreactivity score (Insulin [2]) | Kd (Human MAdCAM) | koff (Human MAdCAM) | kon (Human MAdCAM) | binding result (Human MAdCAM)
MIAB204 (Fc fusion) APTSSSTKKTQLQLEHLLLDLQMILNGINNYKNPKLTRMLTFKFYMPKKATELKHLQCLEEELKPLEEALNLAPSKNFHLRPRDLISDINVIVLELKGSETTFMCEYADETATIVEFINRWITFSQSIISTLTGGGGSGGGGSGGGGSGGGGSDKTHTCPPCPAPEAAGAPSVFLFPPKPKDTLMISRTPEVTCVVVDVSHEDPEVKFNWYVDGVEVHNAKTKPREEQYNSTYRVVSVLTVLHQDWLNGKEYKCKVSNKALPAPIEKTISKAKGQPREPQVYTLPPSREEMTKNQVSLTCLVKGFYPSDIAVEWESNGQPENNYKTTPPVLDSDGSFFLYSKLTVDKSRWQQGNVFSCSVMHEALHNHYTQKSLSLSPGGGGGSGGGGSGGGGSEVQLLESGGGLVQPGGSLRLSCAASGFTFSDFWMHWVRQAPGKGLEWISYISGDSGYTNYADSVKGRFTISRDNSKNTLYLQMNSLRAEDTAVYYCARDRPYYYYMDVWGKGTTVTVSSGGGGSGGGGSGGGGSGGGGSDIQMTQSPSSLSASVGDRVTITCRASQSVSRSLAWYQQKPGKAPKLLIYAASSLQSGVPSRFSGSGSGTDFTLTISSLQPEDFATYYCQQYKSYPVTFGQGTKVEIK | no binding (tested: 100 nM) | 8.43 | – | – | – | –
MIAB148 (antibody, human IgG1, kappa) heavy: EVQLLESGGGLVQPGGSLRLSCAASGFTFSDFWMHWVRQAPGKGLEWISYISGDSGYTNYADSVKGRFTISRDNSKNTLYLQMNSLRAEDTAVYYCARDRPYYYYMDVWGKGTTVTVSSASTKGPSVFPLAPSSKSTSGGTAALGCLVKDYFPEPVTVSWNSGALTSGVHTFPAVLQSSGLYSLSSVVTVPSSSLGTQTYICNVNHKPSNTKVDKKVEPKSCDKTHTCPPCPAPEAAGAPSVFLFPPKPKDTLMISRTPEVTCVVVDVSHEDPEVKFNWYVDGVEVHNAKTKPREEQYNSTYRVVSVLTVLHQDWLNGKEYKCKVSNKALPAPIEKTISKAKGQPREPQVYTLPPSREEMTKNQVSLTCLVKGFYPSDIAVEWESNGQPENNYKTTPPVLDSDGSFFLYSKLTVDKSRWQQGNVFSCSVMHEALHNHYTQKSLSLSPGGGGGSAPTSSSTKKTQLQLEHLLLDLQMILNGINNYKNPKLTRMLTFKFYMPKKATELKHLQCLEEELKPLEEALNLAPSKNFHLRPRDLISDINVIVLELKGSETTFMCEYADETATIVEFINRWITFSQSIISTLT light: not shown | no binding (tested: 100 nM) | 3.63 | 2690 nM | 0.314 s⁻¹ | 117000 M⁻¹ s⁻¹ | –
MIAB170 (antibody, human IgG1, kappa) heavy: EVQLLESGGGLVQPGGSLRLSCAASGFTFSDFWMHWVRQAPGKGLEWISYISGDSGYTNYADSVKGRFTISRDNSKNTLYLQMNSLRAEDTAVYYCARDRPYYYWMDVWGKGTTVTVSSASTKGPSVFPLAPSSKSTSGGTAALGCLVKDYFPEPVTVSWNSGALTSGVHTFPAVLQSSGLYSLSSVVTVPSSSLGTQTYICNVNHKPSNTKVDKKVEPKSCDKTHTCPPCPAPEAAGAPSVFLFPPKPKDTLMISRTPEVTCVVVDVSHEDPEVKFNWYVDGVEVHNAKTKPREEQYNSTYRVVSVLTVLHQDWLNGKEYKCKVSNKALPAPIEKTISKAKGQPREPQVYTLPPSREEMTKNQVSLTCLVKGFYPSDIAVEWESNGQPENNYKTTPPVLDSDGSFFLYSKLTVDKSRWQQGNVFSCSVMHEALHNHYTQKSLSLSPGGGGGSAPTSSSTKKTQLQLEHLLLDLQMILNGINNYKNPKLTRMLTFKFYMPKKATELKHLQCLEEELKPLEEALNLAPSKNFHLRPRDLISDINVIVLELKGSETTFMCEYADETATIVEFINRWITFSQSIISTLT light: DIQMTQSPSSLSASVGDRVTITCRASQSVSRSLAWYQQKPGKAPKLLIYAASSLQSGVPSRFSGSGSGTDFTLTISSLQPEDFATYYCQQYKSYPVTFGQGTKVEIKRTVAAPSVFIFPPSDEQLKSGTASVVCLLNNFYPREAKVQWKVDNALQSGNSQESVTEQDSKDSTYSLSSTLTLSKADYEKHKVYACEVTHQGLSSPVTKSFNRGEC | no binding (tested: 100 nM) | 4.73 | – | – | – | no binding (tested: 1 µM)
MIAB155 (antibody, human IgG1, kappa) heavy: EVQLLESGGGLVQPGGSLRLSCAASGFTFSDFWMHWVRQAPGKGLEWISYISGDSGYTNYADSVKGRFTISRDNSKNTLYLQMNSLRAEDTAVYYCARDRPYYYYMDVWGKGTTVTVSSASTKGPSVFPLAPSSKSTSGGTAALGCLVKDYFPEPVTVSWNSGALTSGVHTFPAVLQSSGLYSLSSVVTVPSSSLGTQTYICNVNHKPSNTKVDKKVEPKSCDKTHTCPPCPAPEAAGAPSVFLFPPKPKDTLMISRTPEVTCVVVDVSHEDPEVKFNWYVDGVEVHNAKTKPREEQYNSTYRVVSVLTVLHQDWLNGKEYKCKVSNKALPAPIEKTISKAKGQPREPQVYTLPPSREEMTKNQVSLTCLVKGFYPSDIAVEWESNGQPENNYKTTPPVLDSDGSFFLYSKLTVDKSRWQQGNVFSCSVMHEALHNHYTQKSLSLSPGGGGGSAPTSSSTKKTQLQLEHLLLDLQMILNGINNYKNPKLTRMLTFKFYMPKKATELKHLQCLEEELKPLEEALNLAPSKNFHLRPRDLISDINVIVLELKGSETTFMCEYADETATIVEFINRWITFSQSIISTLT light: not shown | no binding (tested: 100 nM) | 1.99 | – | – | – | –
